Where two headings read alike, the source gives them in different places.
What was measured:
[1] = target: P-selectin expressed on Chinese hamster ovary cells (CHO-P) (UniProt P16109); assay: flow cytometry on cells
[2] = target: P-selectin expressed on Chinese hamster ovary cells (CHO-P) (UniProt P16109); assay: flow cytometry on cells; remark: listed apart in the source
[3] = target: P-selectin expressed on Chinese hamster ovary cells (CHO-P) (UniProt P16109); assay: flow cytometry on cells; remark: listed apart in the source
[4] = target: Recombinant human P-selectin (recombinant ectodomain of P-selectin) (human) (UniProt P16109); assay: SPR

| Substance | increase of binding over the sample without calcium or magnesium [1] | mean fluorescence intensity (MFI) of C3b-FITC [1] | increase of binding over the sample without calcium or magnesium [2] | increase of binding over the sample without calcium or magnesium [3] | Kd [4] |
| --- | --- | --- | --- | --- | --- |
| FITC-conjugated purified C3b (from UniProt P01024 749-1663; P01024 749-1663) (natural protein) | 33% | 476 | 55% | 63% | – |
| purified C3b (from UniProt P01024 749-1663; P01024 749-1663) (natural protein) | – | – | – | – | 1000 nM |

From article PMC2213112
